In the assay the target is CD3 on CD3-expressing T cells (Jurkat, HPB-ALL) (UniProt P07766). The assay can be described thus: FACS, HBP-ALL T cells. Set-up: Bmax: unit not given here.

As for OKT3 (commercial anti-CD3 antibody), the Bmax amounted to 13300 and the Kd (commonly the equilibrium constant for the complex coming apart) stood at 0.461 nM.

Source of the values: patent publication US20240343802A1.
